The target of assay [1] is T1, human CTLA4/His (Sino Biological Inc.) (human, UniProt P16410 36-162, limits assumed).
T1 construct: Bought protein; not shown: His tag
Put plainly: indirect ELISA, human CTLA4/His coated at 0.1 µg/mL, HRP goat anti-mouse IgG. On the procedure: (§1) Human PD-1/His, human ICOS/Fc, human CTLA4/His, human CD28/Fc, cynomolgus monkey PD-1/Fc, and mouse PD-1/His (all from Sino Biological Inc., Beijing, China) were diluted with PBS buffer to 0.1 μg/mL, and added to the 96-well plate at a volume of 100 μL/well and placed at 16° C. for 16 to 20 h. The PBS buffer was aspirated from the 96-well plate, and the plate was washed once with PBST (PBS containing 0.05% Tween 20, pH 7.4). 200 μL of PBST/1% no-fat milk was added to each well and incubated at room temperature for 1 h for blocking. The blocking solution was removed and the plate was washed 3 times with PBST. 100 μL of the anti-PD-1 antibody to be tested was added to each well, and incubated at room temperature for 1.5 h. The reaction solution was removed and the plate was washed 3 times with PBST. 50 μL of the HRP-labeled goat anti-mouse IgG secondary antibody (The Jackson Laboratory) diluted (dilution ratio 1:4000) was added to each well. Incubated at room temperature for 1 h. The plate was washed 3 times with PBST. 100 μL of the TMB was added to each well and incubated at room temperature for 5-10 min 50 μL of 0.2 M sulfuric acid was added to each well to terminate the reaction. Absorbance values were read at dual wavelengths of 450/620 nm in a microplate reader.
(In an ELISA, binding on a coated surface is turned into a signal by an enzyme label.)

Assay [2] has as its target T2, mouse PD-1/His (Sino Biological Inc.) (mouse, UniProt Q02242 25-167).
T2 construct: Bought protein; not shown: His tag
T2 sequence (looked up): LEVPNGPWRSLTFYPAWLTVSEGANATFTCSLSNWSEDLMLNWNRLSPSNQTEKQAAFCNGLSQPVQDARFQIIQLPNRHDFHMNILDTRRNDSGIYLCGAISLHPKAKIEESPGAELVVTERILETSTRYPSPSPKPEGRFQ
The experiment in a line: indirect ELISA, mouse PD-1/His coated at 0.1 µg/mL, HRP goat anti-mouse IgG. On the procedure: as §1

Assay [3] addresses T3, human ICOS/Fc (Sino Biological Inc.) (human, UniProt Q9Y6W8 21-141, limits assumed).
T3 construct: Bought protein; not shown: Fc
T3 sequence (looked up): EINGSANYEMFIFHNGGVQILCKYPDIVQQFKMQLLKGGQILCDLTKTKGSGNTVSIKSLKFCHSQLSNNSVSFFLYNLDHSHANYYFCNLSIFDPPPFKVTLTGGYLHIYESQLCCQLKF
Put plainly: indirect ELISA, human ICOS/Fc coated at 0.1 µg/mL, HRP goat anti-mouse IgG. On the procedure:
as §1

The target of assay [4] is T4, cynomolgus monkey PD-1/Fc (Sino Biological Inc.) (cynomolgus monkey, UniProt B0LAJ3 25-170).
T4 construct: Bought protein
T4 sequence (B0LAJ3 entry or part of it limits assumed): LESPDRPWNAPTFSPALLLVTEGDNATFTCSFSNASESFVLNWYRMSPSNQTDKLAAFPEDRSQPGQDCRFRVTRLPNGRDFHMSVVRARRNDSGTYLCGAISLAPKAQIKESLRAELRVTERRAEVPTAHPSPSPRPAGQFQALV
The experiment in a line: indirect ELISA, cynomolgus monkey PD-1/Fc coated at 0.1 µg/mL, HRP goat anti-mouse IgG. On the procedure: as §1

Assay [5] deals with T5, human PD-1/His (Sino Biological Inc.) (human, UniProt Q15116 25-170).
T5 construct: extracellular domain; Bought protein; also called extracellular domain fragment of PD-1 protein containing His tag; not shown: His tag
T5 sequence (Q15116 25-170): as the sequence (B0LAJ3 entry or part of it limits assumed) above, with E2D, A10P, L19V, A35T, R75Q, A144T counted along it
Put plainly: affinity and kinetic constants; method not restated, taken as BLI of Example 3.4.

In assay [6] the target is T6, Human PD-1 (Sino Biological Inc., Beijing, China) (human, UniProt Q15116 25-167).
T6 construct: also called hPD-1
T6 sequence (Q15116 25-167 limits assumed): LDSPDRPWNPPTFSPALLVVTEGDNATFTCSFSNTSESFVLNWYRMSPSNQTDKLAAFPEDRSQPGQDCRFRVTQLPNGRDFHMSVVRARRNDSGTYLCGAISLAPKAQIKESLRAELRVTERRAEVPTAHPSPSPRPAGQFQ
The experiment in a line: indirect ELISA, human PD-1 coated at 0.1 µg/mL, HRP goat anti-human IgG. From the text: (§2) The HRP-labeled goat anti-human IgG antibody (The Jackson Laboratory) was used as the secondary antibody, and the detailed assay procedure was as described in Example 2.

The target in assay [7] is T6, Human PD-1 (Sino Biological Inc., …). The experiment in a line: competitive ELISA, human PD-1 coated at 0.1 µg/mL, competitor Keytruda-HRP. On the procedure:
(§3) Human PD-1 (Sino Biological Inc., Beijing, China) was diluted to 0.1 μg/mL with PBS buffer and added to the 96-well plate at a volume of 100 μL/well and allowed to stand overnight at room temperature. The coating solution was removed, 200 μL of PBST/1% no-fat milk was added to each well and incubated at room temperature for 1 h for blocking. The blocking solution was removed and the plate was washed 3 times with PBST.

The target of assay [8] is T7, mouse PD-1 (Sino Biological Inc., Beijing, China) (mouse, UniProt Q02242 25-167, limits assumed).
T7 sequence (looked up): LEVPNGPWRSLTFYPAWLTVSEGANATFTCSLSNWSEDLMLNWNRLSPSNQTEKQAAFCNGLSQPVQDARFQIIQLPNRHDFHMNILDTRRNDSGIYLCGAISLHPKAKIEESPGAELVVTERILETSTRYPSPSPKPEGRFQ
Put plainly: indirect ELISA, mouse PD-1 coated, HRP goat anti-human IgG.
Text: as §2

Assay [9] concerns the target T6, Human PD-1 (Sino Biological Inc., …). The experiment in a line: competitive ELISA, human PD-1 coated at 0.1 µg/mL, competitor Opdivo-HRP. On the procedure: as §3
For assay [10], the target named is T5, human PD-1/His (Sino Biological Inc.). The experiment in a line: competitive ELISA: PD-1/His coated at 2 µg/mL, blocks biotin-labeled PD-L1/Fc. On the procedure: The extracellular domain fragment of PD-1 protein containing His tag was coated onto the 96-well ELISA plate.
PD-1/His was diluted to 2 μg/mL with PBS buffer, pH 7.2, and added to the 96 well ELISA plate at 100 μL per well and incubated with shaking at room temperature for 1 h. The PBS buffer was aspirated from the 96-well ELISA plate. 200 μL of PBST(PBS containing 0.05% Tween 20, pH 7.4)/1% no-fat milk was added to each well and incubated at room temperature for 1 h for blocking. The plate was washed 3 times with PBST. 50 μL of the anti-PD-1 antibody to be tested was added to each well, which was diluted with the blocking solution to an appropriate concentration. […] Incubating at room temperature for 1 h. The plate was washed 3 times with PBST. 100 μL of SA-Avidin-HRP (HRP-labeled streptavidin) diluted at 1:250 ratio with the blocking solution was added to each well, and incubated at room temperature for 1 h. Washing the plate 3 times with PBST. 100 μL of the TMB substrate solution was added to each well and incubated at room temperature for 5-10 min. Adding 50 μL of 0.2 M sulfuric acid to each well to terminate the reaction. The absorbance values were read at 450 nm in a microplate reader.

Assay [11] deals with T8, PD-1 expressed on the surface of activated human T cells (human, UniProt Q15116 25-288).
T8 construct: whole, on cells
T8 sequence (Q15116 25-288): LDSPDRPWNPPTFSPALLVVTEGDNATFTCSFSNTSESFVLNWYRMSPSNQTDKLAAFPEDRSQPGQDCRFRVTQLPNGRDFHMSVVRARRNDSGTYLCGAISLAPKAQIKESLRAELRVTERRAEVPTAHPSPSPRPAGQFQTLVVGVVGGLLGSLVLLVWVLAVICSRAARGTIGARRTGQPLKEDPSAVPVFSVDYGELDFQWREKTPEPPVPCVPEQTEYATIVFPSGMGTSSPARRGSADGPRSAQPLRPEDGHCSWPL
The experiment in a line: flow cytometry on activated human T cells, FITC goat anti-human IgG. On the procedure: Fresh mononuclear cells were obtained from human peripheral blood by density gradient centrifugation (Lymphoprep™, human lymphocyte separation solution, […]), and high purity T lymphocytes were obtained using T cell isolation reagents ([…]). The T lymphocytes were stimulated with 5 μg/mL of the anti-CD3 antibody for 48 h, and cultured for 7 days after addition of 250 IU/mL of human IL-2. A large number of activated T lymphocytes were then obtained. […] The FITC signals were detected by flow cytometry.

Assay [12] deals with T9, PD-1 overexpressed on the surface of CHO cells (Homo sapiens (Human), UniProt Q15116 25-288).
T9 construct: also called PD-1-overexpressing CHO cells
T9 sequence (Q15116 25-288 limits assumed): as the sequence (Q15116 25-288) above
Put plainly: flow cytometry on PD-1-overexpressing CHO cells, FITC goat anti-human IgG. From the text:
FACS (fluorescence activated cell sorting) is a test used for detection of the binding between proteins and cells. The test was used to detect the binding activity of the humanized anti-PD-1 antibodies of the present invention to native PD-1 expressed on the cell surface. The cells used in the test were PD-1-overexpressing CHO cells.

T1 sequence (P16410 36-162 limits assumed): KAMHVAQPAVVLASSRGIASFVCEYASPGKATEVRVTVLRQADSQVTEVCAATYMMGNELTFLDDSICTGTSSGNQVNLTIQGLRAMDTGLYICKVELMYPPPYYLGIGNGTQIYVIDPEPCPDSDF

B1: murine monoclonal antibody AB12N1 (antibody, mouse IgG1, V domains shown)
VH: QVQLVESGGGVVQPGRSLRLDCKASGITFSNSGMHWVRQAPGKGLEWVAVIWYDGSKRYYADSVKGRFTISRDNSKNTLFLQMNSLRAEDTAVYYCATNDDYWGQGTLVTV
VL: EIVLTQSPATLSLSPGERATLSCRASQSVSSYLAWYQQKPGQAPRLLIYDASNRATGIPARFSGSGSGTDFTLTISSLEPEDFAVYYCQQSSNWPRTFGQGTKVEIK
notes: subclass identified as mouse IgG1 (Kappa), purified from hybridoma supernatant; also called antibody of hybridoma clone #22
For B1, the binding result in assay [1], in [2], in [3] and in assay [4] was “no binding (tested: 10 µg/mL)” in each case.

B2: humanized antibody AB12N3 (antibody, V domains shown)
VH: QVQLVESGGGVVQPGRSLRLSCAASGITFSNSGMHWVRQAPGKGLEWVAVWYDGSKRYYADSVKGRFTISRDNSKNTLYLQMNSLRAEDTAVYYCATNDDYWGQGTLVTV
VL: EIVLTQSPATLSLSPGERATLSCRASQSVSSYLAWYQQKPGQAPRLLIYDASNRATGIPARFSGSGSGTDFTLTISSLEPEDFAVYYCQQSSNWPRTFGQGTKVEIK
The term Kd denotes a measure of binding affinity in units of concentration. The koff is the rate constant with which the complex falls apart. As a reminder, the kon is the second-order rate constant of association. In assay [5], B2 yielded a Kd of 0.365 nM, a koff of 2.28e-05 s⁻¹ and a kon of 62400 M⁻¹ s⁻¹.

B3: humanized antibody AB12N5 (antibody, V domains shown)
VH: QVQLVESGGGVVQPGRSLRLSCAASGITFSNSGMHWVRQAPGKGLEWVAVWYDGSKRYYADSVKGRFTISRDNSKNTLFLQMNSLRAEDTAVYYCATNDDYWGQGTLVTV
VL: EIVLTQSPATLSLSPGERATLSCRASQSVSSYLAWYQQKPGQAPRLLIYDASNRATGIPARFSGSGSGTDFTLTISSLEPEDFAVYYCQQSSNWPRTFGQGTKVEIK
In [5], B3 gave a Kd of 0.414 nM, a koff of 2.56e-05 s⁻¹ and a kon of 61900 M⁻¹ s⁻¹.

B4: humanized antibody AB12N4 (antibody, V domains shown)
VH: QVQLVESGGGVVQPGRSLRLSCAASGITFSNSGMHWVRQAPGKGLEWVAVIWYDGSKRYYADSVKGRFTISRDNSKNTLYLQMNSLRAEDTAVYYCATNDDYWGQGTLVTV
VL: EIVLTQSPATLSLSPGERATLSCRASQSVSSYLAWYQQKPGQAPRLLIYDASNRATGIPARFSGSGSGTDFTLTISSLEPEDFAVYYCQQSSNWPRTFGQGTKVEIK
In the case of B4, in assay [5], the affinity, expressed as Kd, was 0.378 nM; the off-rate (koff) was determined as 2.41e-05 s⁻¹; the on-rate constant (kon) amounted to 63700 M⁻¹ s⁻¹.

B5: mouse-human chimeric antibody AB12M2 (antibody, V domains shown)
VH: EVKLVESGGGLVKPGGSLKLSCAASGFTFSSYGMSWVRQTPEKRLEWVATISGGGRDTYYPDSVKGRFTISRDNAKNNLYLQMSSLRSEDTALYYCARQKDTSWFVHWGQGTLVTVSA
VL: not shown
One may read the EC50 (read off the curve) as the concentration needed to bring the measured effect to its halfway point. In the case of B5, the “EC50 (read off the curve)” value in assay [6] is roughly 0.003 µg/mL. Further, in assay [7], the “IC50 (read off the curve)” value is roughly 0.07 µg/mL. In assay [5], this molecule registered a Kd of less than 0.001 nM, a koff of less than 1e-07 s⁻¹ and a kon of 198000 M⁻¹ s⁻¹. For the same molecule, the binding result in assay [8] is recorded as “no binding (tested: 10 µg/ml)”. Also, the “IC50 (read off the curve)” value in assay [9] was roughly 0.08 µg/mL.

B6: humanized antibody AB12M3 (antibody, V domains shown)
VH: EVQLVESGGGLVQPGGSLRLSCAASGFTFSSYGMSWVRQAPGKGLEWVATISGGGRDTYYPDSVKGRFTISRDNAKNNLYLQMNSLRAEDTALYYCARQKDTSWFVHWGQGTLVTVSS
VL: EIVLTQSPATLSLSPGERATLSCRASESVDDYGISFMNWFQQKPGQAPKLLIYVASNQGSGVPARFSGSGSGTDFSLTISSLEPDDTAMYFCQQSKEVPWTFGGGTKVEIK
notes: the description speaks of human IgG4 or IgG1 and human kappa only as embodiments
Broadly, the IC50 is the midpoint of a concentration-inhibition curve. Regarding B6, the IC50 in [10] was 0.114 nM. Besides, the “EC50 (read off the curve)” value was roughly 0.8 nM in assay [11], roughly 0.003 µg/mL in assay [6] and roughly 1 nM in assay [12]. Further, the results for the “IC50 (read off the curve)” value in [7] and in assay [9] were roughly 0.09 µg/mL and roughly 0.1 µg/mL, respectively. The Kd in [5] is less than 0.001 nM. In assay [5], this molecule yielded a koff of less than 1e-07 s⁻¹. Also, in assay [5], the kon turned out to be 226000 M⁻¹ s⁻¹. Besides, the binding result in [8] is “no binding (tested: 10 µg/ml)”.

B7: humanized antibody AB12M4 (antibody, V domains shown)
VH: EVKLVESGGGLVKPGGSLRLSCAASGFTFSSYGMSWVRQTPEKRLEWVATISGGGRDTYYPDSVKGRFTISRDNAKNNLYLQMSSLRSEDTALYYCARQKDTSWFVHWGQGTLVTVSA
VL: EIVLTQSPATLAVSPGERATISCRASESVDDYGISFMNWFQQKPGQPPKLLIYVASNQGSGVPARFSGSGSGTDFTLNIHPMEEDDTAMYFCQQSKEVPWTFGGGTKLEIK
For the molecule B7, in [10], the IC50 came to 0.096 nM. In addition, the “EC50 (read off the curve)” value in assay [6] was roughly 0.003 µg/mL. For the same molecule, in [7], the “IC50 (read off the curve)” value was roughly 0.09 µg/mL. In assay [5], this molecule yielded a Kd of less than 0.001 nM, a koff of less than 1e-07 s⁻¹ and a kon of 213000 M⁻¹ s⁻¹. Further, the “EC50 (read off the curve)” value in assay [12] was roughly 1 nM. The binding result in assay [8] is reported as “no binding (tested: 10 µg/ml)”. Further, the “IC50 (read off the curve)” value in assay [9] was roughly 0.1 µg/mL.
